In patent publication US20240288440A1 (MACFARLANE BURNET INSTITUTE FOR MEDICAL RESEARCH AND PUBLIC …, published 2024):

Biological target: SARS-COV-2 spike protein, ancestral Hu-1, on retroviral pseudotyped virus (SARS-COV-2, UniProt P0DTC2 14-1273)
Test: cell-based or functional assay

B1: CB6-dIgA2 (dimeric chimeric IgA2 of monoclonal antibody CB6 with J chain) (antibody)
heavy: ASEVQLVESGGGLVQPGGSLRLSCAASGFTVSSNYMSWVRQAPGKGLEWVSVIYSGGSTFYADSVKGRFTISRDNSMNTLFLQMNSLRAEDTAVYYCARVLPMYGDYLDYWGQGTLVTVSSASTKGPSVFPLAPSSKSTSGASPTSPKVFPLSLDSTPQDGNVVVACLVQGFFPQEPLSVTWSESGQNVTARNFPPSQDASGDLYTTSSQLTLPATQCPDGKSVTCHVKHYTNPSQDVTVPCPVPPPPPCCHPRLSLHRPALEDLLLGSEANLTCTLTGLRDASGATFTWTPSSGKSAVQGPPERDLCGCYSVSSVLPGCAQPWNHGETFTCTAAHPELKTPLTANITKSGNTFRPEVHLLPPPSEELALNELVTLTCLARGFSPKDVLVRWLQGSQELPREKYLTWASRQEPSQGTTTFAVTSILRVAAEDWKKGDTFSCMVGHEALPLAFTQKTIDRLAGKPTHVNVSVVMAEVDGTCY
light: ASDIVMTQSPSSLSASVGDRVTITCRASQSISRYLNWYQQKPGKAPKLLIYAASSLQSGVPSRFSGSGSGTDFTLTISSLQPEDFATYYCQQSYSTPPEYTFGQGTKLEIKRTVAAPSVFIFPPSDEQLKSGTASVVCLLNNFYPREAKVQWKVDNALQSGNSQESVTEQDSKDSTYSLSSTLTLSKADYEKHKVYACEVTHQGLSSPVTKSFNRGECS
J chain: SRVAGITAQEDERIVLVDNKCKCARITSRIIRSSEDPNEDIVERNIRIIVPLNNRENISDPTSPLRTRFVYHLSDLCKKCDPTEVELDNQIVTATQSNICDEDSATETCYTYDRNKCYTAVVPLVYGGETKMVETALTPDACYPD
IC50 of pseudotyped virus entry, fold against the IgG version: 2.5 fold
